For assay [1], the target named is human MSLN-hFc protein (Acro, Cat. No. MSN-H5253) (human) (UniProt Q13421). Nature of the assay: ELISA on coated antigen, antibody 0.001 nM.
Assay [2] shares this target. Nature of the assay: ELISA on coated antigen, antibody 1 nM. A general note: An ELISA detects its analyte on a solid surface through an enzyme-linked reagent.
Assay [3] deals with human MSLN-R3 on HEK293T-hMSLN-R3 recombinant cells (human) (UniProt Q13421). Nature of the assay: FACS, HEK293T-hMSLN-R3 cells. In general terms: A flow cytometer gives signals particle by particle.
Sequence of human MSLN-R3 on HEK293T-hMSLN-R3 recombinant cells (human) (Q13421 495-614): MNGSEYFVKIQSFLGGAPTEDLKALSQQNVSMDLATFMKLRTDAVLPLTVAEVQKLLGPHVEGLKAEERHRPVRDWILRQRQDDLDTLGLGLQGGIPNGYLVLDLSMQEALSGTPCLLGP
The target of assay [4] is human MSLN-hFc protein (Acro, Cat. No. MSN-H5253) (human) (UniProt Q13421). Nature of the assay: ELISA on coated antigen, antibody 1 nM. This is another data set of the same source.
The target in assay [5] is monkey MSLN on HEK293T-monkey MSLN recombinant cells (monkey). Nature of the assay: FACS, HEK293T-monkey MSLN cells.
Assay [6] addresses human MSLN on OVCAR3 tumor cells (human) (UniProt Q13421). Nature of the assay: FACS, OVCAR3 cells.
In assay [7] the target is human MSLN-hFc protein (Acro, Cat. No. MSN-H5253) (human) (UniProt Q13421). Nature of the assay: ELISA on coated antigen, antibody 0.0001 nM.
Assay [8] shares this target. Nature of the assay: ELISA on coated antigen, antibody 100 nM.
Assay [9] deals with monkey MSLN on HEK293T-monkey MSLN recombinant cells (monkey). The assay can be described thus: FACS, HEK293T-monkey MSLN cells. The source holds these as a separate data set.
In assay [10] the target is human MSLN-R3 on HEK293T-hMSLN-R3 recombinant cells (human) (UniProt Q13421). The assay can be described thus: FACS, HEK293T-hMSLN-R3 cells. This is another data set of the same source.
Assay [11] has as its target human MSLN on OVCAR3 tumor cells (human) (UniProt Q13421). The assay can be described thus: FACS, OVCAR3 cells. The source holds these as a separate data set.
Assay [12] has as its target human MSLN-hFc protein (Acro, Cat. No. MSN-H5253) (human) (UniProt Q13421). The assay can be described thus: ELISA on coated antigen, antibody 0.01 nM.
The target in assay [13] is monkey MSLN on HEK293T-monkey MSLN recombinant cells (monkey). The assay can be described thus: FACS, HEK293T-monkey MSLN cells. This is another data set of the same source.
The target of assay [14] is human MSLN-hFc protein (Acro, Cat. No. MSN-H5253) (human) (UniProt Q13421). Nature of the assay: ELISA on coated antigen, antibody 0.001 nM. This is another data set of the same source.
Assay [15] has the same target. The assay can be described thus: ELISA on coated antigen, antibody 0.1 nM.
Assay [16] concerns the target human MSLN on OVCAR3 tumor cells (human) (UniProt Q13421). Nature of the assay: FACS, OVCAR3 cells. The source holds these as a separate data set.
Assay [17] concerns the target monkey MSLN on HEK293T-monkey MSLN recombinant cells (monkey). The assay can be described thus: FACS, HEK293T-monkey MSLN cells. The source holds these as a separate data set.
In assay [18] the target is human MSLN-hFc protein (Acro, Cat. No. MSN-H5253) (human) (UniProt Q13421). The assay can be described thus: ELISA on coated antigen, antibody 10 nM.
Assay [19] deals with human MSLN on OVCAR3 tumor cells (human) (UniProt Q13421). Nature of the assay: FACS, OVCAR3 cells. The source holds these as a separate data set.
Sequence of human MSLN on OVCAR3 tumor cells (human) (Q13421 other isoform, or with tags, fused parts or gaps): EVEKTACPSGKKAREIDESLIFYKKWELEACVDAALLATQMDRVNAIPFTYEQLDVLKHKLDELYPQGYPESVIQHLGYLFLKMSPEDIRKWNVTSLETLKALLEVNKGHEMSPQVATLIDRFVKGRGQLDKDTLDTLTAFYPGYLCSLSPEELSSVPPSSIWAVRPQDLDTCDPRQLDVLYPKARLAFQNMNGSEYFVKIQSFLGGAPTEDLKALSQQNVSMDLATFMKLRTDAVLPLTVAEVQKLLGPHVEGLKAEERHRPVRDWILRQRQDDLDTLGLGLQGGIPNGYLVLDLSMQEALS
In assay [20] the target is human MSLN-R3 on HEK293T-hMSLN-R3 recombinant cells (human) (UniProt Q13421). Nature of the assay: FACS, HEK293T-hMSLN-R3 cells. The source holds these as a separate data set.
Assay [21] concerns the target human MSLN-hFc protein (Acro, Cat. No. MSN-H5253) (human) (UniProt Q13421). The assay can be described thus: ELISA on coated antigen, antibody 0.1 nM. The source holds these as a separate data set.
Assay [22] concerns the target human MSLN-R3 on HEK293T-hMSLN-R3 recombinant cells (human) (UniProt Q13421). The assay can be described thus: FACS, HEK293T-hMSLN-R3 cells. The source holds these as a separate data set.
In assay [23] the target is human MSLN-R3-3 polypeptide (human). The assay can be described thus: ELISA on coated antigen, antibody 0.001 nM.
For assay [24] the target is unchanged. Nature of the assay: ELISA on coated antigen, antibody 1 nM.
The target of assay [25] is human MSLN-FL-his protein (human) (UniProt Q13421). Nature of the assay: ELISA on coated antigen, antibody 1 nM.
Sequence of human MSLN-FL-his protein (human) (Q13421 other isoform, or with tags, fused parts or gaps): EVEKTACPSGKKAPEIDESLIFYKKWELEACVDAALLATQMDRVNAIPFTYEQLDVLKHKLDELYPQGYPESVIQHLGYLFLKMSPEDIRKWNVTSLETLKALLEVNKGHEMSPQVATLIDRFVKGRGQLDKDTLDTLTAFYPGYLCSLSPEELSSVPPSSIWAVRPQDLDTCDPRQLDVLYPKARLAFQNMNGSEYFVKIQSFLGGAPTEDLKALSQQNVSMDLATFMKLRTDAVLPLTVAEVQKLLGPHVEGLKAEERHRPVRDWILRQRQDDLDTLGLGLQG
Assay [26] deals with human MSLN-R3-3 polypeptide (human). The assay can be described thus: ELISA on coated antigen, no antibody (column none).
Assay [27] has the same target. Nature of the assay: ELISA, coated antigen; antibody 0.001 nM.
Assay [28] addresses human MSLN-R3-his protein (human) (UniProt Q13421). The assay can be described thus: ELISA on coated antigen, antibody 0.0002 nM.
Assay [29] addresses human MSLN-R2-his protein (human) (UniProt Q13421). Nature of the assay: ELISA on coated antigen, antibody 0.0002 nM.
Assay [30] concerns the target human MSLN-R3-3 polypeptide (human). Nature of the assay: ELISA on coated antigen, antibody 0.0001 nM.
The target is the same in assay [31]. The assay can be described thus: ELISA on coated antigen, antibody 100 nM.
For assay [32], the target named is human MSLN-FL-his protein (human) (UniProt Q13421). Nature of the assay: ELISA on coated antigen, antibody 100 nM.
Assay [33] has the same target. The assay can be described thus: ELISA on coated antigen, no antibody (blank, column 'none').
For assay [34], the target named is human MSLN-R3-3 polypeptide (human). Nature of the assay: ELISA, coated MSLN-R3-3.
For assay [35] the target is unchanged. The assay can be described thus: ELISA, coated antigen; antibody 0.0001 nM.
Assay [36] has the same target. Nature of the assay: ELISA, coated antigen; no antibody (blank, column 'none').
Assay [37] shares this target. The assay can be described thus: ELISA on coated antigen, antibody 0.01 nM.
Assay [38] deals with human MSLN-FL-his protein (human) (UniProt Q13421). Nature of the assay: ELISA on coated antigen, antibody 0.01 nM.
Assay [39] has as its target human MSLN-R3-3 polypeptide (human). The assay can be described thus: ELISA on coated antigen, antibody 0.1 nM.
In assay [40] the target is human MSLN-FL-his protein (human) (UniProt Q13421). The assay can be described thus: ELISA on coated antigen, antibody 0.1 nM.
The target in assay [41] is human MSLN-R3-3 polypeptide (human). Nature of the assay: ELISA on coated antigen, antibody 10 nM.
Assay [42] has as its target human MSLN-R3-rFc protein (human) (UniProt Q13421). The assay can be described thus: ELISA, antibody 4 nM.
For assay [43] the target is unchanged. Nature of the assay: ELISA, antibody 100 nM.
Assay [44] concerns the target human MSLN-FL-his protein (human) (UniProt Q13421). Nature of the assay: ELISA, antibody 0.0001 nM.
Assay [45] addresses human MSLN-R3-rFc protein (human) (UniProt Q13421). The assay can be described thus: ELISA, antibody 1 nM.
For assay [46] the target is unchanged. The assay can be described thus: ELISA, antibody 0.032 nM.

Drawing on US20250250357A1, this text covers OD450, Maximum MFI and OD450 nm for three substances.

Read-outs that look alike come from different tables or passages of the source.

Sequence of human MSLN-R3-rFc protein (human) (Q13421 495-606): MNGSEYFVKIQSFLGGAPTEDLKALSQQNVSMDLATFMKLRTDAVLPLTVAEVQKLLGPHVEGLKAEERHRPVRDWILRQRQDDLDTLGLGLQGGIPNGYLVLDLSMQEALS
Sequence of human MSLN-hFc protein (Acro, Cat. No. MSN-H5253) (human) (Q13421 other isoform, or with tags, fused parts or gaps limits assumed): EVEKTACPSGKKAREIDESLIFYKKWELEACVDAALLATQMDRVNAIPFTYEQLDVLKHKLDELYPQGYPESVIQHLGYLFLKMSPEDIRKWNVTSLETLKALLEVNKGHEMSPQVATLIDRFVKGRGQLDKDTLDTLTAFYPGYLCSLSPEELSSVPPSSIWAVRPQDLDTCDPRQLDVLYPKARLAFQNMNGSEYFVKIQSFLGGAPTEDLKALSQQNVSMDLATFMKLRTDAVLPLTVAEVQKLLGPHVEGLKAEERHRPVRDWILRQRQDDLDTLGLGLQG
Sequence of human MSLN-R2-his protein (human) (Q13421 other isoform, or with tags, fused parts or gaps): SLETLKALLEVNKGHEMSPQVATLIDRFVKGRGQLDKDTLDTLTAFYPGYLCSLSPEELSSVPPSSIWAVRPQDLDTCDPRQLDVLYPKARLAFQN
Sequence of human MSLN-R3-his protein (human) (Q13421 495-606): as the sequence (Q13421 495-606) above

Take Tab084 (NC) (scFv): the OD450 in [1] was 0.11 OD450; in assay [2] it was 0.06 OD450; in assay [4], 0.07 OD450; in assay [7], 0.06 OD450; in assay [8], 0.07 OD450; in assay [12], 0.07 OD450. The OD450 in assay [14] is 0.07 OD450; in assay [15], 0.13 OD450; in assay [18] it was 0.07 OD450; in assay [21] it was 0.06 OD450. Besides, the Maximum MFI in assay [3] is 304 MFI; in assay [5], 231 MFI; in assay [6], 336 MFI; in [9], 172 MFI; in [10], 156 MFI; in [11], 209 MFI. Moreover, the Maximum MFI in [13] was 279 MFI; in assay [16], 454 MFI; in [17], 104 MFI; in assay [19] it was 469 MFI; in assay [20], 439 MFI; in assay [22], 92 MFI.

Regarding anti-hel-hIgG1 (antibody), the OD450 in assay [23] was 0.05 OD450; in assay [24], 0.05 OD450; in assay [25] it was 0.04 OD; in assay [26], 0.05 OD450; in assay [27], 0.08 OD450; in assay [28] it was 0.33 OD. Also, the OD450 worked out at 0.52 OD in [29]; 0.05 OD450 in assay [30]; 0.06 OD450 in assay [31]; 0.1 OD450 in [32]; 0.04 OD in [33]; 0.07 OD450 in assay [35]. Besides, the OD450 in assay [36] was 0.07 OD450; in assay [37], 0.05 OD450; in [38], 0.04 OD; in [39], 0.05 OD450; in assay [40] it was 0.04 OD; in [41], 0.05 OD450. Also, the OD450 at 0.0001 nM in assay [34] was 0.07 OD450. In [34], this substance yielded an OD450 at 0.001 nM of 0.07 OD450. This substance also gave an OD450 at 0.01 nM in assay [34] of 0.06 OD450. This substance also showed an OD450 at 0.1 nM in assay [34] of 0.06 OD450. For the same substance, the OD450 at 1 nM in assay [34] stood at 0.06 OD450. Further, the OD450 at 10 nM in [34] was 0.07 OD450. In assay [34], this substance returned an OD450 at none (no antibody) of 0.08 OD450.

For hIgG1 (human IgG1 control antibody), the OD450 nm in [42] stood at 0.15; in [43] it was 0.21; in assay [44], 0.04; in assay [45] it was 0.09; in [46], 0.11.
